Target: Aβ1-42 fibrils (UniProt P05067)
Test: flow cytometry on beads; Aβ fibrils (1% biotinylated, 1 μM) immobilised on streptavidin Dynabeads, blocked with 10% milk; antibody dilutions in PBSB with 1% milk, 3 h, 25 °C; detected with goat anti-human Fc AF647; apparent affinity (EC50)

- EC50: 9 nM
B1: crenezumab (variable domains grafted onto an IgG1 scaffold with a human Fc fragment) (antibody, V domains shown)
VH: EVQLVESGGGLVQPGGSLRLSCAASGFTFSSYGMSWVRQAPGKGLELVASINSNGGSTYYPDSVKGRFTISRDNAKNSLYLQMNSLRAEDTAVYYCASGDYWGQGTTVTVSS
VL: DIVMTQSPLSLPVTPGEPASISCRSSQSLVYSNGDTYLHWYLQKPGQSPQLLIYKVSNRFSGVPDRFSGSGSGTDFTLKISRVEAEDVGVYYCSQSTHVPWTFGQGTKVEIK
